Source: publication PMC6366424, “Development of a novel, high-affinity ssDNA trypsin inhibitor”

Assays:
Details in all cases: protein: commercial
bovine trypsin [1] = molecular target: T1, bovine trypsin (Bos taurus (bovine), UniProt P00760 24-246); assay: SPR; kon 1.03e6 M-1s-1, koff 3.15e-3 s-1; TAAB; ELISA/pull-down: PBS pH 7.4, 5 mM MgCl2, 10 mM KCl, 0.01% Tween20, RT; SPR and inhibition (TAAB): 0.1 M Tris pH 7.5, 150 mM NaCl, 5 mM CaCl2, 10 mM KCl, 5 mM MgCl2, 0.02% Tween 20; inhibition at 37 C (full-length aptamer screen in selection buffer at RT)
T1 sequence (P00760 24-246): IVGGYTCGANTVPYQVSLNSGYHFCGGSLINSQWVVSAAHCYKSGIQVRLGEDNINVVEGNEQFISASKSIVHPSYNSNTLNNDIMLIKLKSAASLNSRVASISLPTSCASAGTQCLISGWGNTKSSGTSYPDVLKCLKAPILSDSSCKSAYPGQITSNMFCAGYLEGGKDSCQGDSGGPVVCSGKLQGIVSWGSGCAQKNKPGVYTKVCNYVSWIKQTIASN

bovine trypsin [2] = molecular target: T1, bovine trypsin; assay: enzyme inhibition (mixed mode); BAPNA, TAAB, 37 C; ELISA/pull-down: PBS pH 7.4, 5 mM MgCl2, 10 mM KCl, 0.01% Tween20, RT; SPR and inhibition (TAAB): 0.1 M Tris pH 7.5, 150 mM NaCl, 5 mM CaCl2, 10 mM KCl, 5 mM MgCl2, 0.02% Tween 20; inhibition at 37 C (full-length aptamer screen in selection buffer at RT)
bovine trypsin [3] = molecular target: T1, bovine trypsin; assay: bead pull-down; ELISA/pull-down: PBS pH 7.4, 5 mM MgCl2, 10 mM KCl, 0.01% Tween20, RT; SPR and inhibition (TAAB): 0.1 M Tris pH 7.5, 150 mM NaCl, 5 mM CaCl2, 10 mM KCl, 5 mM MgCl2, 0.02% Tween 20; inhibition at 37 C (full-length aptamer screen in selection buffer at RT)

Binder	Kd (bovine trypsin [1]) [µM]	Ki (bovine trypsin [2]) [µM]	binding result (bovine trypsin [3])
T24 (ssDNA) DNA: CATGCTTCCCCAGGGAGATGGGTGTGAGGTTAGTTTGCGGGAACTAGAATTCCTGGCAAAGGGGGGCCTGGAGGAACATGCGTCGCAAAC	0.00306	0.176 ± 0.016	–
T21 (ssDNA) DNA: CATGCTTCCCCAGGGAGATGGGTGTGGGGTTAGGTCACTTTATGGTTGGTTCCATTGTGTCAGGGAGCCGGGAGGAACATGCGTCGCAAAC	–	–	binds
T22 (ssDNA) DNA: CATGCTTCCCCAGGGAGATGGGTGTGAGGTTAGGAAATCTGTGTTGAACACTGCTTTCAGGGGGCTTGGGAGGAACATGCGTCGCAAAC	–	–	binds
T59 (ssDNA) DNA: CATGCTTCCCCAGGGAGATGGGTGTGAGGTTAGTTTGCGGTCCTGGCAAAGGGGGGCCTGGAGGAACATG	–	0.475 ± 0.048	–
